Measured values: patent US20160297889A1 (TORAY INDUSTRIES, published 2016)

T1: CAPRIN-1 protein expressed on the membrane surface of human cancer cells (human, UniProt Q14444 2-709)
T1 sequence (looked up): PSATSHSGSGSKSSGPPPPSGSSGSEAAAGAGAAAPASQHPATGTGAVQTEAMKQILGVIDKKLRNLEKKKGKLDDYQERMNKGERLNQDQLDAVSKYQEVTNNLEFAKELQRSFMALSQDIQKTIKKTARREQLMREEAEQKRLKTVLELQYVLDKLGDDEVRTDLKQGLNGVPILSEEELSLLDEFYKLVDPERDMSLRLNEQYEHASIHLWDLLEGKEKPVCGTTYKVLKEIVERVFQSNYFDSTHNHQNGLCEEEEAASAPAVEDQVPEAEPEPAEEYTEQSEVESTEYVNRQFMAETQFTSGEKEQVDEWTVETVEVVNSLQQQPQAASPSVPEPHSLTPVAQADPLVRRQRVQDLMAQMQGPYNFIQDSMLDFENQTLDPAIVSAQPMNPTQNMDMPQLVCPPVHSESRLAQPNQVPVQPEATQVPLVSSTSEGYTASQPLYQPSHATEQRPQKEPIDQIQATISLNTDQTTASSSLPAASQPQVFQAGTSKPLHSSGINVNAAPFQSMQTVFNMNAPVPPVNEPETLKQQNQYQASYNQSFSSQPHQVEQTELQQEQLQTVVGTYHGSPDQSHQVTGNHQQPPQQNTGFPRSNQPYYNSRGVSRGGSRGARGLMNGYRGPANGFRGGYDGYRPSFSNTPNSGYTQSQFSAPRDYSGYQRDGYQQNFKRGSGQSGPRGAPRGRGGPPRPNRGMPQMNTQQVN


Molecular target: T1, CAPRIN-1 protein expressed on the …
Experiment: cell-based or functional assay

Binder	ADCC cytotoxic activity (51Cr release) on 22Rv1	ADCC cytotoxic activity (51Cr release) on A-673	ADCC cytotoxic activity (51Cr release) on BT-474	ADCC cytotoxic activity (51Cr release) on Caki-2	ADCC cytotoxic activity (51Cr release) on FaDu	ADCC cytotoxic activity (51Cr release) on G-361	ADCC cytotoxic activity (51Cr release) on HEC-1-A	ADCC cytotoxic activity (51Cr release) on HT-29	ADCC cytotoxic activity (51Cr release) on HT-1080	ADCC cytotoxic activity (51Cr release) on HT-1376
human-rabbit chimeric anti-CAPRIN-1 antibody (antibody, V domains shown) VH: QSLEESGGRLVTPGTPLTLTCTASGFSLSSHSLGWVRQAPGKGLEWIGDIRSGGSAYYANWAKGRFTISRTSTTVALKMTSLTTEDTATYFCTRTNGPSDLTNRLDLWGQGTLVTVSS VL: QVLTQTPSSVSAAVGGTVTINCQASQSLYNNENLAWFQQKPGQPPKRLIYGASTLASGVSSRFKGSGSGTQFTLTIGDVQCDDAAIYYCLGEFSCGSADCFAFGGGTEVVVK	≥ 38%	≥ 40%	≥ 46%	≥ 26%	≥ 35%	≥ 15%	≥ 40%	≥ 35%	≥ 20%	≥ 28%
humanized antibody #9 (antibody, V domains shown) VH: EQSLVESGGGLVQPGGSLRLSCAASGFSLSSHSLGWVRQAPGKGLEWIGDIRSGGSAYYANWAKGRFTISRDNSKNTLYLQMNSLRAEDTAVYYCTRTNGPSDLTNRLDLWGQGTLVTVSS VL: DIVLTQSPSSLSASVGDRVTINCQASQSLYNNENLAWFQQKPGKVPKRLIYGASTLASGVSSRFSGSGSGTEFTLTISSLQCEDFAIYYCLGEFSCGSADCFAFGGGTKVEIK	≥ 38%	≥ 40%	≥ 46%	≥ 26%	≥ 35%	≥ 15%	≥ 40%	≥ 35%	≥ 20%	≥ 28%
humanized antibody #8 (antibody, V domains shown) VH: QSLVESGGGLVQPGGSLRLSCAASGFSLSSHSLGWVRQAPGKGLEWIGDIRSGGSAYYANWAKGRFTISRTSSKNTVYLQMNSLRAEDTAVYFCTRTNGPSDLTNRLDLWGQGTLVTVSS VL: QVLTQSPSSLSASVGDRVTINCQASQSLYNNENLAWFQQKPGKVPKRLIYGASTLASGVSSRFSGSGSGTEFTLTISSLQCEDFAIYYCLGEFSCGSADCFAFGGGTKVEIK	≥ 38%	≥ 40%	≥ 46%	≥ 26%	≥ 35%	≥ 15%	≥ 40%	≥ 35%	≥ 20%	≥ 28%

Same assay, conditions: not given

Binder	ADCC cytotoxic activity (51Cr release) on Hep3B	ADCC cytotoxic activity (51Cr release) on IM-9	ADCC cytotoxic activity (51Cr release) on MDA-MB-361	ADCC cytotoxic activity (51Cr release) on NCI-H2452	ADCC cytotoxic activity (51Cr release) on NCI-N87	ADCC cytotoxic activity (51Cr release) on NT/D1	ADCC cytotoxic activity (51Cr release) on OCI-AML5	ADCC cytotoxic activity (51Cr release) on OE33	ADCC cytotoxic activity (51Cr release) on Panc10.5	ADCC cytotoxic activity (51Cr release) on QG56
human-rabbit chimeric anti-CAPRIN-1 antibody (antibody, V domains shown) VH: QSLEESGGRLVTPGTPLTLTCTASGFSLSSHSLGWVRQAPGKGLEWIGDIRSGGSAYYANWAKGRFTISRTSTTVALKMTSLTTEDTATYFCTRTNGPSDLTNRLDLWGQGTLVTVSS VL: QVLTQTPSSVSAAVGGTVTINCQASQSLYNNENLAWFQQKPGQPPKRLIYGASTLASGVSSRFKGSGSGTQFTLTIGDVQCDDAAIYYCLGEFSCGSADCFAFGGGTEVVVK	≥ 21%	≥ 27%	≥ 40%	≥ 31%	≥ 34%	≥ 25%	≥ 15%	≥ 30%	≥ 24%	≥ 38%
humanized antibody #9 (antibody, V domains shown) VH: EQSLVESGGGLVQPGGSLRLSCAASGFSLSSHSLGWVRQAPGKGLEWIGDIRSGGSAYYANWAKGRFTISRDNSKNTLYLQMNSLRAEDTAVYYCTRTNGPSDLTNRLDLWGQGTLVTVSS VL: DIVLTQSPSSLSASVGDRVTINCQASQSLYNNENLAWFQQKPGKVPKRLIYGASTLASGVSSRFSGSGSGTEFTLTISSLQCEDFAIYYCLGEFSCGSADCFAFGGGTKVEIK	≥ 21%	≥ 27%	≥ 40%	≥ 31%	≥ 34%	≥ 25%	≥ 15%	≥ 30%	≥ 24%	≥ 38%
humanized antibody #8 (antibody, V domains shown) VH: QSLVESGGGLVQPGGSLRLSCAASGFSLSSHSLGWVRQAPGKGLEWIGDIRSGGSAYYANWAKGRFTISRTSSKNTVYLQMNSLRAEDTAVYFCTRTNGPSDLTNRLDLWGQGTLVTVSS VL: QVLTQSPSSLSASVGDRVTINCQASQSLYNNENLAWFQQKPGKVPKRLIYGASTLASGVSSRFSGSGSGTEFTLTISSLQCEDFAIYYCLGEFSCGSADCFAFGGGTKVEIK	≥ 21%	≥ 27%	≥ 40%	≥ 31%	≥ 34%	≥ 25%	≥ 15%	≥ 30%	≥ 24%	≥ 38%

Same assay, conditions: not given

Binder	ADCC cytotoxic activity (51Cr release) on RD-ES	ADCC cytotoxic activity (51Cr release) on RPM11666	ADCC cytotoxic activity (51Cr release) on Ramos	ADCC cytotoxic activity (51Cr release) on SKOV3	ADCC cytotoxic activity (51Cr release) on T24	ADCC cytotoxic activity (51Cr release) on TGBC14TKB	ADCC cytotoxic activity (51Cr release) on TT	ADCC cytotoxic activity (51Cr release) on U-87MG
human-rabbit chimeric anti-CAPRIN-1 antibody (antibody, V domains shown) VH: QSLEESGGRLVTPGTPLTLTCTASGFSLSSHSLGWVRQAPGKGLEWIGDIRSGGSAYYANWAKGRFTISRTSTTVALKMTSLTTEDTATYFCTRTNGPSDLTNRLDLWGQGTLVTVSS VL: QVLTQTPSSVSAAVGGTVTINCQASQSLYNNENLAWFQQKPGQPPKRLIYGASTLASGVSSRFKGSGSGTQFTLTIGDVQCDDAAIYYCLGEFSCGSADCFAFGGGTEVVVK	≥ 31%	≥ 30%	≥ 15%	≥ 27%	≥ 30%	≥ 25%	≥ 30%	≥ 24%
humanized antibody #9 (antibody, V domains shown) VH: EQSLVESGGGLVQPGGSLRLSCAASGFSLSSHSLGWVRQAPGKGLEWIGDIRSGGSAYYANWAKGRFTISRDNSKNTLYLQMNSLRAEDTAVYYCTRTNGPSDLTNRLDLWGQGTLVTVSS VL: DIVLTQSPSSLSASVGDRVTINCQASQSLYNNENLAWFQQKPGKVPKRLIYGASTLASGVSSRFSGSGSGTEFTLTISSLQCEDFAIYYCLGEFSCGSADCFAFGGGTKVEIK	≥ 31%	≥ 30%	≥ 15%	≥ 27%	≥ 30%	≥ 25%	≥ 30%	≥ 24%
humanized antibody #8 (antibody, V domains shown) VH: QSLVESGGGLVQPGGSLRLSCAASGFSLSSHSLGWVRQAPGKGLEWIGDIRSGGSAYYANWAKGRFTISRTSSKNTVYLQMNSLRAEDTAVYFCTRTNGPSDLTNRLDLWGQGTLVTVSS VL: QVLTQSPSSLSASVGDRVTINCQASQSLYNNENLAWFQQKPGKVPKRLIYGASTLASGVSSRFSGSGSGTEFTLTISSLQCEDFAIYYCLGEFSCGSADCFAFGGGTKVEIK	≥ 31%	≥ 30%	≥ 15%	≥ 27%	≥ 30%	≥ 25%	≥ 30%	≥ 24%
